# Results from the DeepSol protein solubility set.
# Experiment: soluble on expression in E. coli; label from the status in PepcDB or PDB records
row,Sequence,soluble on expression in E. coli
1,MSAKEVDFERESHLHAVMCFLTGQSGEKIVSIYPHRKPATKAPSKDPQPSSSNPGQCVKPVLTSVKDPSYGFGRVDTEFDMSLGMLAYVFKTQEIACNDGFDMKINNQRFVAYPKTWKARGESTNYQISIVFALKNGCEQHTASAYQTLSNKIAVSLVMLQNYFGFLEREDKWADNAEEPNKDHPLEEFAKTSFIVQPLAEMFEEVRNRGNIHKYLINFVELGFCDEAHALTKLNVVPKGRQEIDEIVRKMKPYHGILLLEDVWPTPDANPIVAKLLSHCSPDRSILDMSTASGIPIFEVFMIIRHLLQWTRAILIYPLCNTNIYTSATSPQPLDKMAEKFTAQFGNTIHLAAGLAHFNPPKTLDTFIRKNLPLHEQGVRAKLVVALLRHQMLMQLHQFYYILKPYSIAILPEPKEPCPAEFTKIIEESTLPNDVKGVVADICAEMLETTSYASVKRTLSLFVKVAPMMDGNHHLEEIKYKNNLDRTEIEGVFVSFKLVIATFRRPDFVAE,not soluble
2,MKRKFLIASHGNLAKGFQSSLDILADKGKELAVINAYVTPEDYTPIIQTFLQSLGAEEQAIILTDLYGGSVNQKIVQEVMTTKPDNVFIISNANLAIALSLIFLKEGEKLTKEDIQAAIAEAQIQFVELNPSNEEENFF,not soluble
3,MGSDKIHHHHHHMIETKFKQTELCRIPEDWDIGTFADFLITFSAGATPYRGIPDNFVGTIPWISSGELNYCEIENTREHISSDAQKNTHLTLHKPGTFLIAITGLEAAGTRGRCAFVKTPATTNQSCLAINSTDKMTVKYLFWFYRQWSDFLAFNFSQGSKQQSFTAEIVKRLPLYAPKYKEQEKIAEALSDVDKLIRELDTLIEKKRAVMQGTMQELLTAHRRLPGFVHPWRNTLVEKCCKITTGESNTRDQIESGIYPFYIRSATVMRSNSYIFDCEGVITIGDGQIGKVFHYVNGKFDLHQRCYLMYDFDDIDVKFFYFLFSFFFYNRVIALSAKATVDSVRRNMIAKMKINIPSTMQEQKAIANILSDMNDGIEAIEAKRDKYIAVRQGMMQQLLTGKIRLI,not soluble
4,MGHHHHHHSHMEKIKIIVASDSIGETAELVARAGISQFNPKQCKNELLRYPYIESFEDVDEVIQVAKDTNAIIVYTLIKPEMKQYMSEKVAEFQLKSVDIMGPLMDLLSASVEEKPYNEPGIVHRLDDAYFKKIDAIEFAVKYDDGKDPKGLPKADIVLLGISRTSKTPLSQYLAHKSYKVMNVPIVPEVTPPDGLYDIDPKKCIALKISEEKLNRIRKERLKQLGLGDTARYATEARIQEELNYFEEIVSEIGCPVIDVSQKAIEETANDIIHYIEQNKSK,soluble
5,MGSDKIHHHHHHMTEKTTAELENLRGLIDGVDSQLLSLLRKRLDLVAQVGTVKHAAGLPIYAPAREAAMLGKRRAEAEAMGVSPQLIEDILRRLMRESYMSEKDVGFKQVNPELGHIVIIGGQGQLGRLFAQMFALSGYEVRLLDKDDWDHADELFDGAGLVLVTVPIATTCSLIRERLDHLPEHCILADLTSVKGAPLKAMLETHKGPVVGLHPMFGPDVGSLAKQVVVVCHGRAPEKYQWLMEQIGIWGARLVEADAGRHDKAMQLVQAMRHFSSFVYGLNLCREQADIDTLLEFSSPIYRLELAMVGRLFAQSGELYADIIFAQEESLTAISDFIDNYRDALELLKTGDRAGFIARFNEVSNWFGNYSQQFLTESRAMLQSVNDMRSV,not soluble
6,MGSDKIHHHHHHMNFQRDFNDLLNALLTDWRNQFPDADLSQGSLIYMKSACLASALWGLYKYQEWISKQIFPDTAETKYLEHHAWVRGLSRRSGETDEELLARLLEYIRRPPAGGNKYDYQKWALEIDNVANAWCIPLSQGPGTVDVIIAADETVTGSEIPSSHALTGTTTAITENKLVDGAADFMATGDGGPVRIGDIAVNDDTGGQAVITAVDNATQLTLDTDIFSSIGQSYTLKSLTAQVGEYIDDVRPVTVSIVRILPPAVTLQDVTMTVTGTVNKEAIASAITSLLRSLVPGQTLYLSRLIAIAIQEGATNASISAPAADMSPGPYEMLRPGTITVS,not soluble
7,DKVQNAVMQAMVRGSLNKDLAAQIKDLGKTTEKRAMFIARDQSSKLNAALTQARHEEVGIKKYMWSASLDERVRESHAEKDGQIFEYANPPADTDHPGHDFNCRCVQI,not soluble
8,MERDTVVKEVVEALKIFSRDIRTQIDEMGSQLRAEIQDTANQLRAEIQDTANQLRAEMQETANQLRAEMQETANQLRAEMQQFRAEVNERFDRLEQKFAGLRVELTETQETVHFLASKTIQHEKKLHHLAKQLESIR,not soluble
